18 sequences from the supplement of paper PMC9170038 can be followed below.

This data set concerns MS2 coat protein. Kind of data set: apparent KD of MS2 coat protein; higher = weaker reporter binding. The conditions noted are these: Eterna round: R107. The method in brief:
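Binding of SNAP-549-labelled MS2 coat protein was measured on designed RNA switches transcribed on-chip from Illumina sequencing clusters. The protein rose in twofold steps from 0.7 or 1.5 nM to 3 µM, with 0.8–1.5 h per step early on and 10–20 min per step later, in 100 mM Tris-HCl pH 7.5, 80 mM KCl, 4 mM MgCl2, without or with constant ligand. Each design's apparent KD is the median of fits to its normalised cluster binding curves.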

[1] abbreviates: input ligand: theophylline 20 uM.
[2] abbreviates: input ligand: theophylline 2 mM.
Setting [3] is: input ligand: tryptophan 2.4 mM.

With “UGUCAGCGAAAGUUGACAUGUCUUGCUGGUCGAGGACCGGUACGGCCGCCACUCGAUCUCUCGCACAUGAGGAUCACCCAUGUUG [SS Tryp A #23]”, the “apparent KD of MS2 coat protein” value (input ligand: arginine 13.2 mM) stood at 13.9 nM, the “apparent KD of MS2 coat protein” value under setting [1] was found to be 14.4 nM and the “apparent KD of MS2 coat protein” value under setting [2] was 13.9 nM.

As for “UGUGUGUGACCAGGAAAUGGUCACACACAGCGAGGACCGGUACGGCCGCCACUCGGCCGUACAUGAGGAUCACCCAUGUCGGGUA [#1 Same State - Tryptophan A Attempt #9 (HarryS)]”, the “apparent KD of MS2 coat protein” value (input ligand: arginine 13.2 mM) stood at 99.6 nM, the “apparent KD of MS2 coat protein” value under setting [1] came out at 961 nM and the “apparent KD of MS2 coat protein” value under setting [2] stood at 1290 nM.

Turning to “UGUUUGGUGCGCGAGUGUUGGAUAAUUGAUACCAGUGAAGAAGAGCGCCCUUGGCAGCGAAUCCUAACAUGAGGAUCACCCAUGU [5.U]”, the “apparent KD of MS2 coat protein” value by setting is: (input ligand: arginine 13.2 mM) 41.5 nM; (input ligand: none) 39.7 nM; under setting [1], 84.8 nM; under setting [2], 51.7 nM; under setting [3], 39 nM.

As for “UUAAGAGGCUAUCCACUUUGAUUUUGUGAUACCAGAAUAAUUUUAUUCCCUUGGCAGCAUGACAUGAGGAUCACCCAUGUGUCUU [SSTheo A #3]”, the “apparent KD of MS2 coat protein” value runs as follows: (input ligand: arginine 13.2 mM) 31.4 nM; under setting [1], 46.5 nM; under setting [3], 36.9 nM.

As to “UUAAUCUAUGAAGAAAACUUUAUAGCAGAAGGAGCGUGAUAAAACACAGGUAGGUCGCUGAAGGGAACAUGAGGAUCACCCAUGU [AstrosSSArgA#19]”, the “apparent KD of MS2 coat protein” value by setting is: (input ligand: arginine 13.2 mM) 23.7 nM; (input ligand: none) 22.7 nM; under setting [1], 36.7 nM; under setting [2], 31.1 nM; under setting [3], 26.5 nM.

“UUAAUUAUAUAUUAUUUAAUAUUUACAGAAGGAGCGUGAUAAAACACAGGUAGGUCGCUGAAGGGAACAUGAGGAUCACCCAUGU [AstrosSSArgA#20]”: the “apparent KD of MS2 coat protein” value stood at 28.6 nM (input ligand: arginine 13.2 mM); 28.9 nM (input ligand: none); 41.6 nM under setting [1]; 60.1 nM under setting [2]; 38.9 nM under setting [3].

As for “UUACACAUGAGGAUCACCCAUGUCUGGGAGCGAGGACCGGUACGGCCGCCACUCGAAUUGUCAGGGCUAUGCCGGACGAUGCAUC [theeternabot_sameState_MS2_Trp_A_20]”, the “apparent KD of MS2 coat protein” value is, setting by setting: (input ligand: arginine 13.2 mM) 20.6 nM; under setting [1], 23.5 nM; under setting [2], 25 nM.

Turning to “UUAUAAGUACCGGUCCUCAGAUCCUCAUGACGAGGACCGGUACGGCCGCCACUCGAAACAUGAGGAUCACCCAUGUAAUAAUAAC [Brourdmod04]”, the “apparent KD of MS2 coat protein” value amounted to 23.3 nM (input ligand: arginine 13.2 mM), 92.1 nM under setting [1] and 37.7 nM under setting [2].

Consider “UUAUGAUGUUCCGAUACCAGCCAUGUAGUUCUAACUUAACAUGAGGAUCACCCAUGUACCGGCCCUUGGCAGCGGAUGUGGAUUA [#22Same State - Theophylline B]”, for which the “apparent KD of MS2 coat protein” value reads like this: (input ligand: arginine 13.2 mM) 27 nM; (input ligand: none) 23.4 nM; under setting [1], 29.3 nM; under setting [2], 14.8 nM; under setting [3], 23.7 nM.

Consider “UUAUUUAACGGAAGGAGCGCGGAUAAAAUAGUGGGUAAACAUGAGGAUCACCCAUGUAAACCGCAGGUAGGUCGCCGAUAUUUAU [AstrosEXyARgB#5]”, for which the “apparent KD of MS2 coat protein” value was 21.5 nM (input ligand: arginine 13.2 mM); 43.1 nM (input ligand: none); 48.8 nM under setting [1]; 33.2 nM under setting [2]; 35.9 nM under setting [3].

“UUCACAUGGUAUGAAUAUACAUACAAGAAACGAGGACCGGUACGGCCGCCACUCGUGCCGGAAACAUGAGGAUCACCCAUGUGUU [AK1.2 Exclusion TrypA mod IceBolt]”: the “apparent KD of MS2 coat protein” value runs as follows: (input ligand: arginine 13.2 mM) 21.5 nM; under setting [1], 41.2 nM; under setting [2], 41.2 nM.

Take “UUGGGUAUGCGAAGGAGCGGGAAAUAUAUAUAUAUAAUCCUAACAUGAGGAUCACCCAUGUCCCAGGUAGGUCGCGCAUGUUUGG [12.K]”: the “apparent KD of MS2 coat protein” value is 128 nM (input ligand: arginine 13.2 mM); 207 nM (input ligand: none); 250 nM under setting [1]; 423 nM under setting [2]; 247 nM under setting [3].

“UUGGGUUUGCGAAGGAGCGGGUAUGUUUUCUAGUGGAUCCUAACAUGAGGAUCACCCAUGUCCCAGGUAGGUCGCGCGGGUUUGG [12.V]”: the “apparent KD of MS2 coat protein” value by setting is: (input ligand: arginine 13.2 mM) 89.1 nM; (input ligand: none) 122 nM; under setting [1], 230 nM; under setting [2], 224 nM; under setting [3], 148 nM.

In the case of “UUGGGUUUGUGAAGGAGCGGGAAAUAUAUAUAUAUAAUCCUAACAUGAGGAUCACCCAUGUCCCAGGUAGGUCGCGCGGGUUUGG [12.N]”, the “apparent KD of MS2 coat protein” value turned out to be 46.4 nM (input ligand: arginine 13.2 mM); 60.2 nM (input ligand: none); 63.5 nM under setting [1]; 65.5 nM under setting [2]; 51.6 nM under setting [3].

With “UUUACAUGAGGAUCACCCAUGUGCCAUGAUACCAGACAUGAAAAUGUCCCUUGGCAGCAUGAGUGAUGCAUCCGAAAGGAUGUUU [Ivanovice]”, the “apparent KD of MS2 coat protein” value (input ligand: arginine 13.2 mM) is 97.2 nM, the “apparent KD of MS2 coat protein” value under setting [1] amounted to 197 nM and the “apparent KD of MS2 coat protein” value under setting [3] is 52.4 nM.

Consider “UUUGAUAGAACAGAUACCAGCGUGUUAUAAAACAUGAGGAUCACCCAUGUAGUGAUCAAGCGCCCUUGGCAGCUGGUUUGUUAGG [7.I]”, for which the “apparent KD of MS2 coat protein” value by setting is: (input ligand: arginine 13.2 mM) 76.4 nM; under setting [1], 122 nM; under setting [3], 161 nM.

On to “UUUGGCGGCGAUCUGGGUUUCCCAGAUCGGCGAGGACCGGUACGGCCGCCACUCGUGUUUCUUUGACAUGAGGAUCACCCAUGUA [whbob_SS_trypto A_f4]”, for which the “apparent KD of MS2 coat protein” value (input ligand: arginine 13.2 mM) stood at 51.5 nM; the “apparent KD of MS2 coat protein” value (input ligand: none) came to 62.7 nM; the “apparent KD of MS2 coat protein” value under setting [1] turned out to be 82.7 nM; the “apparent KD of MS2 coat protein” value under setting [2] was 93.9 nM; the “apparent KD of MS2 coat protein” value under setting [3] stood at 42.8 nM.

In the case of “UUUGUAAUUGUCUGGUAGAUUUAUUUAUUUCGAGGACCGGUACGGCCGCCACUCGUUAAUUACAUGAGGAUCACCCAUGUUAGCU [JR_ExcTryptoA_Sub008]”, the “apparent KD of MS2 coat protein” value reads like this: (input ligand: arginine 13.2 mM) 14.1 nM; under setting [1], 17.1 nM; under setting [2], 15 nM.
